Source: US8722861B2, “Monoclonal antibodies that bind to the V3 loop of HIV-1 gp120” (priority 2007, dated 2014)

Assays:
[1] = test system: strain 89.6; experiment: Single-round neutralization of pseudotyped virus, 89.6; assay type: cell-based, HIV-1; settings: 10 μg/ml and 2 μg/ml, FIG. 3
Description: (§1) With regard to 20 types of antibodies, their binding activity to the cell surface, the amount of antibody produced, and the like were taken into consideration. As a result, regarding 15 types of antibodies, the number of cells was increased, a culture supernatant was collected and was then filtrated, and a monoclonal antibody was then purified using a protein A column or protein G column (GE Healthcare). The neutralizing activity of the thus purified monoclonal antibody on pseudotyped HIV-1 viruses was examined at an antibody concentrations of 10 μg/ml and 2 μg/ml, using the envelopes of 4 types of HIV-1 strains commonly used in laboratories (FIG. 3). In order to produce such pseudotyped virus, on the day before transfection, 293T cells were dispersed on a 100-mm collagen-coated plate (IWAKI) to a cell concentration of 4×10^6, and they were then cultured at 37° C. overnight. […] Ten seconds after the addition of the luciferase substrate, fluorescence intensity was measured with a TR477 microplate luminometer (Applied Biosystems) (in the case of GHOST-hi5). […] Thereafter, β-galactosidase activity was measured with the TR477 microplate luminometer. […]

[2] = test system: HIV-1JR-FL chronically infected cells (PM1/JR-FL); experiment: FACS binding to functional envelope on infected cell surface; settings: for reactivity in the absence of sCD4: absence of sCD4, FIG. 2
Method: It has been known that HIV-1 has a functional envelope causing membrane fusion with target cells on viral particles and on the surfaces of chronically infected cells. In order to study whether or not the produced antibody is able to recognize this functional envelope, the binding activity of the antibody to the cell surface of HIV-1JR-FL chronically infected cells (PM1/JR-FL) was examined with a flow cytometer. […] PM1/JR-FL cells (2×10^5) were placed in a test tube. Thereafter, 50 μl of sCD4 that had been diluted with a FACS buffer (2% BSA, 0.02% Azide in PBS; pH 7.23) and adjusted to a concentration of 1 μg/ml, or 50 μl of only the FACS buffer, was added to the test tube. The mixture was reacted for 15 minute. Thereafter, 50 μl of monoclonal antibody diluted with a FACS buffer to a concentration of 1 to 3 μg/ml was then added to the reaction mixture, and the obtained mixture was reacted at room temperature for 45 minutes. The resultant was washed with a FACS buffer two times, and 50 μl of FITC-bound anti-human IgG antibody (Sigma) diluted with a FACS buffer at a ratio of 1:200 was then added to the resultant. The mixture was incubated at 4° C. in a dark place for 30 minutes. Thereafter, the resultant was washed with a FACS buffer two times, and it was then fixed with 0.5 ml of fixing solution {2% (w/v) paraformaldehyde in PBS}. The fixed sample was analyzed with FACSCalibur (Beckton-Dickinson). The incorporated data was analyzed with Cell Quest (Beckton-Dickinson). […] Differing from the reaction with the gp120 monomer, in the case of a functional envelope consisting of a trimer, the binding inhibition of CD4bs antibodies by sCD4 was not observed. On the other hand, with regard to CD4i antibodies, the 4 types of antibodies all had only weak reactivity in the absence of sCD4, but in the presence of sCD4, such reactivity was increased up to the level equivalent to the reactivity of a V3 antibody.

[3] = test system: pseudotyped HIV-1 viruses (envelopes of 4 types of HIV-1 strains); experiment: Single-round neutralization of pseudotyped viruses, 4 strains overall; assay type: cell-based; settings: 4 types of envelope pseudotyped viruses overall; FIG. 3
Description: as §1, with “overnight. Thereafter, 5 μg of pNL4-3-Luc-E^−R^− or 5 μg of pSG3ΔEnv (Li M. et. al, J. Virol. 79, pp. 10108-10125, 2005), 4.5 μg of an envelope expression vector, and 0.5 μg of a pRSV-REV vector were introduced into the culture using Effectene (QIAGEN), and the obtained mixture was then cultured at 37° C. in 5% CO2. Twenty-four hours after initiation of the culture, a supernatant was recovered and was then pass through a 0.2-μm filter. Thereafter, it was then dispensed and was then conserved at −80° C. The obtained pseudotyped virus was subjected to a p24 Antigen ELISA kit (ZeptoMetrix Co.) to measure the amount of p24 antigen. A single-round neutralization experiment using the pseudotyped virus was carried out as follows. On the day before the experiment, GHOST-hi5 cells or TZM-bl cells were dispersed on a 96-well flat bottom culture plate (Falcon) at a concentration of 2×10^4 cells/200 μl.” for “overnight.”

[4] = test system: HIV-1 of subtype B (Western type); experiment: MTT assay neutralization, 17 types of viral strains overall; assay type: cell-based; settings: summary of Table 2
Method: Neutralizing activity on 17 types of viral strains including clinically isolated strains was studied (Table 2). For this neutralization experiment, the following MMT assay was applied. As a method, 2×10^3 PM1/CCR5 cells were infected with 100 TCID50 virus in the presence of the antibody in each concentration on a 96-well round-bottom micro culture plate, and the cells were then cultured at 37° C. for 7 days. Thereafter, 100 μl of a culture solution was removed from each well, and 10 μl of an MTT (3-[4,5-dimethylthiazol-2-yl]-2,5-diphenyltetrazolium bromide) solution dissolved in a phosphate-buffered saline (PBS) (7.5 mg/ml) was then added thereto. The obtained mixture was incubated at 37° C. for 3 hours. Thereafter, 100 μl of acidified isopropanol containing 4% Triton X-100 (vol/vol) was added to each well, so as to release formazan crystal. The absorbance (570 nm) was measured with a microplate reader, and the cell survival rate was calculated. This experiment was repeated 2 or 3 times. The antibody concentration necessary for inhibiting 50% virus infection (IC50) was calculated, and the antibody concentration corresponding to such IC50 was indicated with color-coding.
It should be noted that strains, which were not neutralized by the anti-V3 antibody, 0.5γ(1C10), were neutralized by the CD4bs antibodies, 0.5δ(3D6) and 49G2. That is to say, a complementary neutralization was observed.

[5] = test system: strain JR-FL; experiment: Single-round neutralization of pseudotyped virus, JR-FL; assay type: cell-based, HIV-1; settings: 10 μg/ml and 2 μg/ml, FIG. 3
Description: as §1

[6] = test system: JR-FL strain; experiment: MTT assay of combined use on JR-FL strain; assay type: cell-based; settings: combined use with CCR5 inhibitor (maraviroc, MVC); HIV-1JRFL; FIG. 12
Method: By combining 0.5δ and 0.5γ in various concentrations, their neutralizing activity on a JR-FL strain was analyzed by an MTT assay. […] In order to analyze such synergistic effect, the analysis method of Chow/Talaley et al. and the 3-dimensional analysis method were applied. […]

[7] = biological target: T1, gp120 (Human immunodeficiency virus type 1 group M subtype B, UniProt P03378); settings: 0.5δ(3D6) 5 μg/ml for 15 minutes versus control antibody 8D11; FIG. 4
T1 sequence (P03378 32-509): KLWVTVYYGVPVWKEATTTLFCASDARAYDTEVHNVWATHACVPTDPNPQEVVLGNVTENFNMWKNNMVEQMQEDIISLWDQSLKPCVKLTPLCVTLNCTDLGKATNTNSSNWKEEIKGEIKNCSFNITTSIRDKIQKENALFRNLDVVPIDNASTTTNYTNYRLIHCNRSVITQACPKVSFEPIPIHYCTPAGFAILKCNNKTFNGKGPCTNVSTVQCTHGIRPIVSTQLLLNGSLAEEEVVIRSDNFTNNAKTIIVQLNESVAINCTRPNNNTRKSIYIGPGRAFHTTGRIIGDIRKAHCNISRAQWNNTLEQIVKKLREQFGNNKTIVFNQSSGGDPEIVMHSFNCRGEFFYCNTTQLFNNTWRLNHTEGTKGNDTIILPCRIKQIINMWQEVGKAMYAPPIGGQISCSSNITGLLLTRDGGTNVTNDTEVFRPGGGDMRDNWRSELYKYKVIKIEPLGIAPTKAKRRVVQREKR
Method: Thereafter, a supernatant was removed, and 175 μl of a blocking buffer (2% bovine serum albumin; BSA, 0.1% Azide, PBS, pH 7.2) was added to the residue. The obtained mixture was left at rest at room temperature for 30 minutes. Thereafter, the well was washed with an ELISA wash buffer (0.15% Tween20, PBS, pH 7.2) three times, and 50 μl each of monomeric gp120 (gp120-SF2; Austral Biologicals, San Ramon, Calif.) was then added thereto. The obtained mixture was left at rest at room temperature for 2 hours. Thereafter, the resultant was washed with the ELISA wash buffer three times, so as to produce a “gp120-captured plate.” A culture supernatant of B cells was added to this plate, and the mixture was then reacted at room temperature for 2 hours. The resultant was washed with the ELISA wash buffer three times, and 100 μl of anti-human IgG-ALP, which had been diluted by a factor of 1000 with the ELISA buffer, was then added to the resultant. The obtained mixture was left at rest at room temperature for 1 hour. The resultant was washed with the ELISA wash buffer three times. Phosphatase substrate (SIGMA) was dissolved in a substrate buffer (Diethanol amine buffer; pH 9.85), and 100 μl of the obtained solution was then added to each well, followed by leaving the mixture at rest at room temperature for 10 to 30 minutes. Thereafter, the absorbance (405 nm) was measured with a microplate reader. […]

[8] = test system: Standard Virus Panels B; SVPB (12 types of pseudotyped viruses); experiment: Breadth of neutralization on Standard Virus Panels B; assay type: cell-based, HIV-1
Method: The neutralizing activity of the thus purified monoclonal antibody on pseudotyped HIV-1 viruses was examined at an antibody concentrations of 10 μg/ml and 2 μg/ml, using the envelopes of 4 types of HIV-1 strains commonly used in laboratories (FIG. 3). In order to produce such pseudotyped virus, on the day before transfection, 293T cells were dispersed on a 100-mm collagen-coated plate (IWAKI) to a cell concentration of 4×10^6, and they were then cultured at 37° C. overnight. Thereafter, 5 μg of pNL4-3-Luc-E^−R^− or 5 μg of pSG3ΔEnv (Li M. et. al, J. Virol. 79, pp. 10108-10125, 2005), 4.5 μg of an envelope expression vector, and 0.5 μg of a pRSV-REV vector were introduced into the culture using Effectene (QIAGEN), and the obtained mixture was then cultured at 37° C. in 5% CO2. […] Ten seconds after the addition of the luciferase substrate, fluorescence intensity was measured with a TR477 microplate luminometer (Applied Biosystems) (in the case of GHOST-hi5). […] Thereafter, β-galactosidase activity was measured with the TR477 microplate luminometer. Neutralizing activity was calculated in accordance with the expression {1−(t−c)/(n−c)}×100 (t: the fluorescence intensity of a sample; c: the background fluorescence intensity of only cells; n: the fluorescence intensity of a sample with no antibodies). […]

[9] = test system: 93TH966.8; experiment: Neutralization of subtype AE virus 93TH966.8; assay type: cell-based, HIV-1; settings: 93TH966.8, subtype AE; FIG. 11
Description: (§2) As with the panels of subtype (clade) B viruses (SVPB), the panels of subtype C viruses have also been supplied. […] Thus, it is considered that they are important for the studies of cross-clade neutralization by antibodies.

[10] = biological target: T1, gp120; settings: epitope on gp120: V3L, CD4bs, CD4i
Method: Antibodies reacting with gp120 are classified into the following 4 types, depending on the types of reactive epitopes. Specifically, the 4 types are a CD4-binding site (CD4bs), a CD4-induced epitope (CD4i), a third variable loop (V3loop; V3L), and those that cannot be classified into the aforementioned groups (other epitopes). Whether or not an antibody binds to V3L is determined by ELISA using a synthetic peptide having the amino acid sequence of V3L (V3-peptide ELISA). […] On the day before the experiment, 100 μl of a peptide (NNT20) diluted in PBS at a concentration of 5 μg/ml was added to each well of a 96-well polypropyren plate, and it was then left at 4° C. overnight. After washing, 175 μl of a blocking buffer was added to each well, and was incubated at room temperature for 30 minutes. The plate was washed with an ELISA wash buffer three times, and a B cell culture supernatant diluted serially was then added to the wells. The plate was reacted at room temperature for 2 hours. […] After washing the resultant, color was developed using ALP-Substrate, and the absorbance (405 nm) was then measured. […]
On the other hand, soluble CD4 (sCD4; R&D Systems, Inc. Minneapolis, Minn.) exerts completely opposite influences on a CD4bs antibody and a CD4i antibody. […] After washing them, color was developed using ALP-Substrate, and the absorbance (405 nm) was then measured.

[11] = test system: SVPC15; experiment: Neutralization of subtype C virus panel, SVPC15; assay type: cell-based, HIV-1; settings: compared with a control antibody, FIG. 11
Description: as §2

[12] = test system: 93TH976.17; experiment: Neutralization of subtype AE virus 93TH976.17; assay type: cell-based, HIV-1; settings: 93TH976.17, subtype AE; FIG. 11
Description: as §2

[13] = biological target: monomeric gp120 (gp120-SF2) (Human immunodeficiency virus type 1 group M subtype B, UniProt P03378); settings: presence or absence of 0.5 μg/ml sCD4; FIG. 1
Sequence of monomeric gp120 (gp120-SF2) (P03378 32-509): as above
Method: The “gp120-capture ELISA” was applied to screen for the antibody-producing cells having an anti-gp120 activity (J. P. Moore et al., J. Virol. 67, pp. 6136-6151, 1993). […] Thereafter, a supernatant was removed, and 175 μl of a blocking buffer (2% bovine serum albumin; BSA, 0.1% Azide, PBS, pH 7.2) was added to the residue. The obtained mixture was left at rest at room temperature for 30 minutes. Thereafter, the well was washed with an ELISA wash buffer (0.15% Tween20, PBS, pH 7.2) three times, and 50 μl each of monomeric gp120 (gp120-SF2; Austral Biologicals, San Ramon, Calif.) was then added thereto. The obtained mixture was left at rest at room temperature for 2 hours. Thereafter, the resultant was washed with the ELISA wash buffer three times, so as to produce a “gp120-captured plate.” A culture supernatant of B cells was added to this plate, and the mixture was then reacted at room temperature for 2 hours. The resultant was washed with the ELISA wash buffer three times, and 100 μl of anti-human IgG-ALP, which had been diluted by a factor of 1000 with the ELISA buffer, was then added to the resultant. […] Thereafter, the absorbance (405 nm) was measured with a microplate reader.
Utilizing this property, monoclonal antibodies were classified. […] After washing them, color was developed using ALP-Substrate, and the absorbance (405 nm) was then measured.

[14] = test system: SVPC13; experiment: Neutralization of subtype C virus panel, SVPC13; assay type: cell-based, HIV-1; settings: compared with a control antibody, FIG. 11
Description: as §2

Row | Molecule | neutralizing activity [1] | reactivity in the absence of sCD4 [2] | neutralizing activity [3] | neutralizing activity on various HIV-1 strains, overall [4] | neutralizing activity [5] | combination effect on neutralizing activity [6] | reactivity of biotinylated antibody with gp120 in the presence of 0.5δ [7] | viruses whose growth was suppressed 50% or more ([8]; at a concentration of 50 μg/ml) | viruses whose growth was suppressed 50% or more ([8]; at a concentration of 150 μg/ml) | binding activity to the infected cell surface ([2]; FIG. 2) | neutralizing activity [9] | Traget [10] | neutralizing activity [11] | neutralizing activity [12] | influence of sCD4 on reactivity with gp120 [13] | neutralizing activity [14]
1 | 5G2: IgG1 κ monoclonal antibody to gp120 V3 loop; VH SEQ ID NO: 3, VL SEQ ID NO: 4; FERM BP-11021 (antibody, listed as Homo sapiens, V domains shown, IgG1 κ monoclonal antibody to gp120 V3 loop; FERM BP-11021) VH: EVQLVESGGGVVRPGNSLRLSCAASGIIFSTANLHWLRHVPGKGLEWVAIISYDGHRQYYADLVKGRFTISRDNSKNTLHLQMDGLTSDDTAVYYCAKDGADENNLGPAFDYWGRGTLVTVSS VL: EIVLTQSPATLSVSPGEGATLSCRASQSISSNLAWYQQKPGQAPRLLIYGASTGATGIPARFSGSGSGTDFTLTISRLEPEDFAIYYCQQYGSLPITFGQGTRLEIKR | exhibited a neutralizing activity | strong reactivity | strong neutralizing activity | equivalent to that of a KD-247 antibody | exhibited a neutralizing activity | synergistic inhibitory effect |  |  |  |  |  |  |  |  |  | 
2 | 0.5γ(1C10): human IgG1 κ monoclonal antibody to gp120 V3 loop; VH SEQ ID NO: 1, VL SEQ ID NO: 2; FERM BP-11060 (antibody, listed as Homo sapiens, V domains shown, human IgG1 κ monoclonal antibody to gp120 V3 loop; FERM BP-11060) VH: EVQLVESGGGLIQPGGSLRLSCAASGFTVSSSSMSWVRQAPEKGLEWVSVVYSGGNTYNADSVKGRFSISRDNSKNTVYLQMNSLRADDTAVYYCARDLGGGDRSSDYWGQGTLVTVSS VL: DIQLTQSPSSLSASVGDRVTITCRASESINTYLNWYQQRPGKAPKLLIYAASTLQTGVPSRFSGSGSGTLFTLTISSLQPEDLATYYCQQSFSTLPYTLGRGTKVEIKG | exhibited a neutralizing activity | strong reactivity | strong neutralizing activity | wide range of strong neutralizing activity | exhibited a neutralizing activity | synergistic inhibitory effect | significantly enhanced | 7/12 | 10/12 |  |  |  |  |  |  | 
3 | 42F9: IgG1 κ monoclonal antibody to gp120 CD4-binding site; VH SEQ ID NO: 7, VL SEQ ID NO: 8; FERM BP-11022 (antibody, listed as Homo sapiens, V domains shown) VH: EVQLVESGGGVVRPGGSLRLSCAASGFAFGEYGMSWVRQAPGKGLEWVSGINWNGGSTGYADSVQGRFTTSRDNAKNSLYLQMNSLRAEDTALYYCARDENYDILTGNYYYGMDVWGQGTTVTVSS VL: DIQLTQSPSSLSASVGDRVTITCRASQSISNYLNWYQQKPGKAPKLLIYAASSLQSGVPSRFSGSGSGTDFTLTISSLQPEDFATFYCQQSHSIPYTFGQGTKLEIKR |  |  | strong neutralizing activity |  |  |  |  |  |  | had a binding activity | exhibited a neutralizing activity | CD4bs | clear neutralizing activity | exhibited a neutralizing activity | suppressed in the presence of sCD4 | clear neutralizing activity
